Source: US20210047402A1 (published 2021)
Where two headings read alike, the source gives them in different places.

Experiments:
human CD22 [1] = target: T1, human CD22 (human, UniProt P20273 20-687); experiment: BLI
Summary of the method: (§1)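 Binding affinity was measured by biolayer interferometry, with Kd taken as koff/kon. The instrument was an Octet QK-384 with anti-human IgG Fc capture biosensors, run in 1×PBS, 0.1% BSA, 0.02% Tween-20, pH 7.2. After loading at 5 μg/mL for 120 seconds, the heavy chain-only antibodies were exposed to human CD22 protein in a 7-point 1:2 series from 250 nM, with a buffer-only reference well. Rate constants came from a 1:1 binding model in Octet Data Analysis v9.0.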

human CD22 [2] = target: T1, human CD22; experiment: BLI; remark: listed apart in the source
Summary of the method: as §1

T1 sequence (P20273 20-687): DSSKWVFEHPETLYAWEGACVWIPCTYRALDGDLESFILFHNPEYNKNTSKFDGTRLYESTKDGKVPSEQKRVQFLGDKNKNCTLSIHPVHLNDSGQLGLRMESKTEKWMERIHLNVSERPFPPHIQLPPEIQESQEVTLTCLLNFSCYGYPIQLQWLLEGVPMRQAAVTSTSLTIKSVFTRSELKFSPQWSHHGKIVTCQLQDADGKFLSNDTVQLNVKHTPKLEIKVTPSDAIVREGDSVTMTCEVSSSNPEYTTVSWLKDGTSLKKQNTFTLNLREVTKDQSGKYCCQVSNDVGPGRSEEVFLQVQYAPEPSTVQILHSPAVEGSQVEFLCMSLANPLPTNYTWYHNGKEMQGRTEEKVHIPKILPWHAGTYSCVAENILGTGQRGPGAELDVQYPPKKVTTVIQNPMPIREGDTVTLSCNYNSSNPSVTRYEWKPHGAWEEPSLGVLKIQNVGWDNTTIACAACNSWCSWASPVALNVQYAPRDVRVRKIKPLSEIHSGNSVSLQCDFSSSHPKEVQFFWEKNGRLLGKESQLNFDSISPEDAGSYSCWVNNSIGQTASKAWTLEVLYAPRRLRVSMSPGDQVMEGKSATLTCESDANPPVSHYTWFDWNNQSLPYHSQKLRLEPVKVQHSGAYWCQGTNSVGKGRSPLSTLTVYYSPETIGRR

Binder	Kd (human CD22 [1]) [µM]	Kd (human CD22 [2]) [µM]
anti-CD22 heavy chain-only antibody Clone ID 335171 (antibody, V domains shown) VH: QLQLQESGPGLVKPSETLSLTCTVSGGSISSSSYYWGWIRQPPGKGLEWIGSIYYSGATYYNPSLKNRVTISVDTSRNQFSLNLSSVTAADTAVYYCTRDDSSNWRSRGQGTLVTVSS	0.0845	–
anti-CD22 heavy chain-only antibody Clone ID 335201 (antibody, V domains shown) VH: QLQLQESGPGLVKPSETLSLTCTVSGDSISSGDYYWGWIRQPPGKGLEWIGHIYYSGVTYYNPSLKNRVTISVDTSRNQFSLKLSSVTAADTAVYYCTREDSSNWRSRGQGTLVTVSS	–	0.00519

Now from value to binder:

Kd (human CD22 [1]) [µM]	Kd (human CD22 [2]) [µM]	Binder
0.0246	–	anti-CD22 heavy chain-only antibody Clone ID 335232 (antibody, V domains shown) VH: QLQLQESGPGLVKPSETLSLTCTVSGDSISSGDYYWGWIRQPPGKGLEWIGHIYYSGATYYNPSLKNRVTISVDTSRNQSSLNLSSVTAADTAVYYCTREDSSNWRSRGQGTLVTVSS
2.58	–	anti-CD22 heavy chain-only antibody Clone ID 335263 (antibody, V domains shown) VH: QLQLQESGPGLVKPSETLSLTCTVSGGSINDNSHYWGWIRQPPGKGLEWIGHIYYSGATYYNPSLKNRVTISVDTSRNQFSLNLSSVTAADTAVYYCTREDSSSWRSRGQGTLVTVSS
